According to patent EP3816180A1 (Max-Planck-Gesellschaft zur Förderung der Wissenschaften …, dated 2021):

Biological target: T1, cpHaloΔ9mer
T1 construct: Large fragment of split, circularly permuted HaloTag7; Made in E. coli; also called cpHalo_9mer; cpHalo156-141
Assay: ITC; 9mer peptide (30 mM) titrated into cpHaloΔ9mer (0.6 mM), HEPES 50 mM pH 7.3, NaCl 50 mM; three independent measurements

T1 sequence (chain, as listed by the source mutant): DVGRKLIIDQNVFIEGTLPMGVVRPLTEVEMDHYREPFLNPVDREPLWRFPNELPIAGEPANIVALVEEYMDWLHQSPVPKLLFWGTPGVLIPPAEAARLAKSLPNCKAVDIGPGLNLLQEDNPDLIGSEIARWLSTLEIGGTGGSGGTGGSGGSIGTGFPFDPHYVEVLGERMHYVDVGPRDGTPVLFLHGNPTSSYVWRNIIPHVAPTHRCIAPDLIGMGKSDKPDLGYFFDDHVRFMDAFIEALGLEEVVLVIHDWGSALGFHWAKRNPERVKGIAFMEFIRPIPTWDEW

B1: 9mer peptide (peptide)
peptide: ARETFQAFR
notes: Free peptide titrated in ITC; also called PEP1
B1 gave a Kd of 5.3 mM.
